B1: U6.mir-675: U6 promoter-driven mir-675 expression plasmid with 40 nt 5' and 47 nt 3' flanking sequences (nucleic acid)
DNA: GACGCCGCCATCTCTAGGCCCGCGCCGGCCCCCTCGCACAGACTTGTGGGAGAAGCTCGGCTACTCCCCTGCCCCGGTTAATTTGCATATAATATTTCCTAGTAACTATAGAGGCTTAATGTGCGATAAAAGACAGATAATCTGTTCTTTTTAATACTAGCTACATTTTACATGATAGGCTTGGATTTCTATAAGAGATACAAATACTAAATTATTATTTTAAAAAACAGCACAAAAGGAAACTCACCCTAACTGTAAAGTAATTGTGTGTTTTGAGACTATAAATATCCCTTGGAGAAAAGCCTTGTTTGCGTTTAGTGAACCGTCAGATGGTACCGTTTAAACTCGAGCCCAGGGTCTGGTGCGGAGAGGGCCCACAGTGGACTTGGTGACGCTGTATGCCCTCACCGCTCAGCCCCTGGGACTAGAGCGGCCGCCACAGCGGGGAGATCCAGACATGATAAGATACATTTTTT
B2: H1.mir-675: commercially available H1 promoter mir-675 expression plasmid (SBI Biosciences) (nucleic acid)
DNA: GAACGCTGACGTCATCAACCCGCTCCAAGGAATCGCGGGCCCAGTGTCACTAGGCGGGAACACCCAGCGCGCGTGCGCCCTGGCAGGAAGATGGCTGTGAGGGACAGGGGAGTGGCGCCCTGCAATATTTGCATGTCGCTATGTGTTCTGGGAAATCACCATAAACGTGAAATGTCTTTGGATTTGGGAATCTTATAAGTTCTGTATGAGACCACCCCCCAGGGTCTGGTGCGGAGAGGGCCCACAGTGGACTTGGTGACGCTGTATGCCCTCACCGCTCAGCCCCTGGGGAATTCTTCGATTCTGCTTTTTT

Assays:
[1] = system: DUX4-FL (DUX4 ORF + 3'UTR, RenLuc-DUX4-FL); assay: Dual-luciferase assay, RenLuc-DUX4-FL reporter co-transfected with miRNA plasmids in HEK293 cells; format: cell-based, human
Source text: FIG. 1A. Dual-luciferase assay to test the ability of U6.mir-675 to target DUX4. Shown here is the mir-675 expression plasmid used in this study. In this construct, the RNA polymerase III U6 promoter (U6p) controls the expression of mir-675. A terminal signal formed of a stretch of six T nucleotides allows the termination of transcription. On the right, the secondary structure of the mir-675 along with its 5′ and 3′ end flanking sequences (Boxed) is shown. At the 5′ end, the flanking sequence is of 40 nucleotides long and at the 3′ end, the flanking sequence is of 47 nucleotides long starting from the nucleotide at position 114. U6.mir-675 was tested to target DUX4 using the dual-luciferase assay. To do this, DUX4 was cloned in the RenLuc-DUX4-FL expression plasmid (FIG. 1A), i.e., DUX4-FL (DUX4 ORF without V5 tag+3′UTR) was PCR amplified using CMV.DUX4-FLΔV5 as template with the following primers: forward: 5′ […] 3′ (SEQ ID NO: 125), reverse: 5′ […] 3′ (SEQ ID NO: 126). The PCR product was then cloned into a previously designed RenLuc SD5 mutant plasmid using XhoI/SpeI restriction sites and the RenLuc.SD5 mutant-DUX4 3′UTR plasmid backbone. The Renilla luciferase gene has a splicing donor mutation (*SID5) that prevents the alternative splicing of the DUX4-FL mRNA (Ansseau et al. (2015) PLoS One, 10, e0118813). The dual-luciferase assay was performed by co-transfecting the RenLuc-DUX4-FL and U6.mir-675 expression plasmids into the human embryonic kidney HEK293 cells. 48 hours after transfection, both the Renilla and Firefly luciferase activities were measured. The latter was used to normalize for Renilla luciferase activity. The non-targeting RenLuc control backbone plasmid (RenLuc) was co-transfected with U6.mir-675 and the RenLuc-DUX4-FL co-transfected with U6.milacZ as negative control reactions. In the other reactions, mir-675 reduced the relative Renilla luciferase activity by 24±3% (P<0.0001, ANOVA, N=3), 28±2% (P<0.0001, ANOVA, N=3) and 33±3% (P<0.0001, ANOVA, N=3) at a molarity ratio U6.mir-675: RenLuc-DUX4-FL (n:n) of 10 to 1, 20 to 1 and 40 to 1, respectively. All readings were normalized to the U6.milacZ (negative control). Six replicate data were averaged per experiment and individual experiments were performed in triplicate (N=3). Results were reported as the average relative Renilla luciferase activity±SEM for all combined experiments. […] A representative western blot gel and the quantification results of three independent western blot replicates (N=3) performed on 15 μg of total protein extracts collected from HEK293 cells 24 hours after co-transfection with the AAV.CMV.DUX4-FL and the U6.mir-675 or the human long non-coding H19 expression plasmid (CMV.H19) is shown here. […]

DUX4 mRNA = assay: QPCR (SYBR green) of DUX4 mRNA in co-transfected HEK293 cells; format: cell-based, human; settings: 3 to 1 ratio with DUX4 construct, normalized to egfp, relative to milacZ
Method: H1.mir-675 construct was transfected in a 3 to 1 ratio with DUX4 construct in HEK293 cells, and collected RNA extracts 24 and 48h after transfection. Total RNA was prepared using the miRVANA isolation kit. DUX4 and egfp (used as the reference gene) mRNA levels were determined using the SYBR green master mix as described in materials and methods. All values were normalized to egfp, and were reported relative to milacZ treated samples. At 24 and 48h after transfection, DUX4 levels decreased by an average of 37±2% (P<0.0001, ANOVA, N=3) and 51±2% (P<0.0001, ANOVA, N=3), respectively. Results were reported as the average relative DUX4 expression±SEM of three replicates. […] When compared to the milacZ sample, mir-675-5p overexpressed levels were ˜2000-fold higher (P<0.0001, ANOVA, N=3). Results were reported as the average relative mir-675-5p expression (2^−ΔCq)±SEM of three replicates.

| Molecule | reduction of relative Renilla luciferase activity ([1]; miRNA:RenLuc-DUX4-FL molar ratio 10 to 1, 48 h, normalized to U6.milacZ) [%] | reduction of relative Renilla luciferase activity ([1]; miRNA:RenLuc-DUX4-FL molar ratio 20 to 1, 48 h, normalized to U6.milacZ) [%] | reduction of relative Renilla luciferase activity ([1]; miRNA:RenLuc-DUX4-FL molar ratio 40 to 1, normalized to milacZ) [%] | decrease of DUX4 mRNA levels (DUX4 mRNA; 24 h) [%] | decrease of DUX4 mRNA levels (DUX4 mRNA; 48 h) [%] |
| --- | --- | --- | --- | --- | --- |
| B1 | 24±3 | 28±2 | 33±3 | – | – |
| B2 | – | – | – | 37±2 | 51±2 |

Source: patent US20240093191A1, “COMPOSITIONS AND METHODS FOR TREATING DISEASE ASSOCIATED WITH DUX4 OVEREXPRESSION” (RESEARCH INSTITUTE AT NATIONWIDE CHILDREN'S HOSPITAL, priority 2021, published 2024)
